Fewer inactive variants are shown than the library holds.
Experiments:
biotinyl-Trp-oxazolone = experiment: self-aminoacylation, catalytic enhancement (BWO) (fold over background); higher = more active; k-Seq, kA / k0A0; sequences stand for … in GGGAAUGGAUCCACAUCUACGAAUUC…UUCACUGCAGACUUGACGAAGCUG
Method in brief: (§1)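 Mutagenized RNA pools with a 21-nt variable region (0.43 μM) were reacted with each biotinyl-aminoacyl-oxazolone at 2–1250 μM for 90 minutes at room temperature, in 50 μL HEPES/NaCl/KCl/MgCl2/CaCl2 buffer containing 5% acetonitrile at pH 6.9–7.0. RNA captured on streptavidin was quantified by triplicate qPCR and by Illumina sequencing. The fraction reacted for each sequence was fit to a pseudo-first-order model with bootstrapping, and catalytic enhancement is the median kA divided by the uncatalyzed rate, taken as the low-activity peak of a bimodal Gaussian fit.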

biotinyl-Leu-oxazolone = experiment: self-aminoacylation, catalytic enhancement (BLO) (fold over background); higher = more active; k-Seq, kA / k0A0; sequences stand for … in GGGAAUGGAUCCACAUCUACGAAUUC…UUCACUGCAGACUUGACGAAGCUG
Method in brief: as §1

biotinyl-Met-oxazolone = experiment: self-aminoacylation, catalytic enhancement (BMO) (fold over background); higher = more active; k-Seq, kA / k0A0; sequences stand for … in GGGAAUGGAUCCACAUCUACGAAUUC…UUCACUGCAGACUUGACGAAGCUG
Method in brief: as §1

biotinyl-Val-oxazolone = experiment: self-aminoacylation, catalytic enhancement (BVO) (fold over background); higher = more active; k-Seq, kA / k0A0; sequences stand for … in GGGAAUGGAUCCACAUCUACGAAUUC…UUCACUGCAGACUUGACGAAGCUG
Method in brief: as §1

biotinyl-Ile-oxazolone = experiment: self-aminoacylation, catalytic enhancement (BIO) (fold over background); higher = more active; k-Seq, kA / k0A0; sequences stand for … in GGGAAUGGAUCCACAUCUACGAAUUC…UUCACUGCAGACUUGACGAAGCUG
Method in brief: as §1

biotinyl-Phe-oxazolone = experiment: self-aminoacylation, catalytic enhancement (BFO) (fold over background); higher = more active; k-Seq, kA / k0A0; sequences stand for … in GGGAAUGGAUCCACAUCUACGAAUUC…UUCACUGCAGACUUGACGAAGCUG
Method in brief: as §1

Row | Sequence | self-aminoacylation (biotinyl-Trp-oxazolone) | self-aminoacylation (biotinyl-Leu-oxazolone) | self-aminoacylation (biotinyl-Met-oxazolone) | self-aminoacylation (biotinyl-Val-oxazolone) | self-aminoacylation (biotinyl-Ile-oxazolone) | self-aminoacylation (biotinyl-Phe-oxazolone)
1 | AGUCACCUAGGUCAUCCGGUG [Fam2.2 aminoacylation ribozyme variant] | 7.84 | 6.49 | 6.2 | 5.32 | 5.6 | 56.9
2 | AGUCACCUAGGUCAUCGCGUG [Fam2.2 aminoacylation ribozyme variant] | 14.3 | 18.3 | 14.4 | 9.1 | 8.4 | 97
3 | AGUCACCUAGGUCAUCGGAUG [Fam2.2 aminoacylation ribozyme variant] | 0.786 | 1.18 | 1.21 | 1.04 | 1.2 | 1.24
4 | AGUCACCUAGGUCAUCGGCUG [Fam2.2 aminoacylation ribozyme variant] | 3 | 2.27 | 2.18 | 2.59 | 2.5 | 18.9
5 | AGUCACCUAGGUCAUCGGGUA [Fam2.2 aminoacylation ribozyme variant] | 9.54 | 12.7 | 11.6 | 6.5 | 6.85 | 60
6 | AGUCACCUAGGUUAUCGGGUG [Fam2.2 aminoacylation ribozyme variant] | 6.62 | 4.68 | 4.56 | 4.56 | 4.39 | 32.2
7 | AGUCACCUUGGUCAUCGGGUG [Fam2.2 aminoacylation ribozyme variant] | 5.71 | 6.96 | 5.4 | 4.85 | 4.89 | 49.8
8 | AGUCACGUAGGUCAUCGGGUG [Fam2.2 aminoacylation ribozyme variant] | 6.71 | 5.72 | 5.11 | 5.07 | 3.96 | 52.9
9 | AGUGCCCUGGUCAUCGAGUGA [Fam2.1 aminoacylation ribozyme variant] | 13.6 | 14.5 | 12.5 | 5.79 | 6.36 | 67.6
10 | AUAACCAUGGUCAUCGAGUGA [Fam2.1 aminoacylation ribozyme variant] | 8.43 | 7.68 | 7.91 | 3.7 | 3.91 | 23.8
11 | AUAACCCUAGUCAUCGAGUGA [Fam2.1 aminoacylation ribozyme variant] | 6.64 | 5.25 | 5.44 | 2.97 | 2.68 | 5.43
12 | AUAACCCUGGACAUCGAGUGA [Fam2.1 aminoacylation ribozyme variant] | 5.65 | 6.63 | 6.69 | 2.47 | 3.02 | 28.8
13 | AUAACCCUGGUAAUCGAGUGA [Fam2.1 aminoacylation ribozyme variant] | 9.38 | 8.57 | 7.93 | 3.58 | 3.97 | 42.6
14 | AUAACCCUGGUCAUAGAGUGA [Fam2.1 aminoacylation ribozyme variant] | 9.78 | 8.65 | 8.34 | 3.61 | 3.62 | 49
15 | AUAACCCUGGUCAUCCAGUGA [Fam2.1 aminoacylation ribozyme variant] | 6.17 | 6.28 | 5.52 | 3.21 | 3.62 | 22.8
16 | AUAACCCUGGUCAUCGAAUGA [Fam2.1 aminoacylation ribozyme variant] | 0.785 | 0.798 | 1.07 | 0.954 | 0.882 | 0.579
17 | AUAACCCUGGUCAUCGAGCGA [Fam2.1 aminoacylation ribozyme variant] | 1.52 | 2.88 | 1.58 | 1.59 | 1.62 | 1.91
18 | AUAACCCUGGUCAUCGAUUGA [Fam2.1 aminoacylation ribozyme variant] | 0.392 | 1.02 | 0.883 | 0.974 | 0.94 | 0.646
19 | AUAACCCUGGUCAUCUAGUGA [Fam2.1 aminoacylation ribozyme variant] | 10.1 | 9.2 | 8.88 | 4.77 | 4.52 | 45.7
20 | AUAACCCUUGUCAUCGAGUGA [Fam2.1 aminoacylation ribozyme variant] | 7.89 | 6.26 | 6.3 | 3.13 | 3.29 | 21.5
21 | AUACACCUACGUCAUCGGGUG [Fam2.2 aminoacylation ribozyme variant] | 3.83 | 5.2 | 4.6 | 2.49 | 3.12 | 31.8
22 | AUACACCUAGGGCAUCGGGUG [Fam2.2 aminoacylation ribozyme variant] | 4.14 | 3.71 | 2.83 | 2.43 | 2.99 | 17.1
23 | AUACACCUAGGUCAGCGGGUG [Fam2.2 aminoacylation ribozyme variant] | 3.08 | 3.49 | 3.8 | 2.15 | 2.29 | 15.5
24 | AUACACCUAGGUCAUAGGGUG [Fam2.2 aminoacylation ribozyme variant] | 2.14 | 1.36 | 1.23 | 1.43 | 1.35 | 3.76
25 | AUACACCUAGGUCAUCGGGGG [Fam2.2 aminoacylation ribozyme variant] | 1.22 | 1.39 | 1.29 | 1.73 | 1.85 | 4.96
26 | AUACACCUAGGUCAUCGGGUG [Fam2.2 aminoacylation ribozyme variant] | 4.29 | 3.88 | 3.88 | 2.96 | 2.93 | 19.8

Row | Sequence | self-aminoacylation (biotinyl-Trp-oxazolone) | self-aminoacylation (biotinyl-Leu-oxazolone) | self-aminoacylation (biotinyl-Met-oxazolone) | self-aminoacylation (biotinyl-Val-oxazolone) | self-aminoacylation (biotinyl-Ile-oxazolone) | self-aminoacylation (biotinyl-Phe-oxazolone)
27 | AUACACCUAGGUCAUCGGGUU [Fam2.2 aminoacylation ribozyme variant] | 2.69 | 2.79 | 2.15 | 2.14 | 2.4 | 1.76
28 | AUACACCUAGGUCAUGGGGUG [Fam2.2 aminoacylation ribozyme variant] | 3.4 | 3.49 | 3.51 | 2.26 | 2.52 | 18.6
29 | AUACACCUGGGUCAUCGGGUG [Fam2.2 aminoacylation ribozyme variant] | 3.69 | 4.41 | 4.39 | 3.54 | 3.31 | 14.8
30 | AUACACCUUGGUCAUCGGGUG [Fam2.2 aminoacylation ribozyme variant] | 4.4 | 4.72 | 3.63 | 2.89 | 3.47 | 19.9
31 | AUACUGCAAACAAUCGGUCUG [Fam1A.1 aminoacylation ribozyme variant] | 1.44 | 1.18 | 1.09 | 1.05 | 1.08 | 2.49
32 | AUACUUCAAACAAGCGGUCUG [Fam1A.1 aminoacylation ribozyme variant] | 0.889 | 1.01 | 0.884 | 0.986 | 0.977 | 0.83
33 | AUACUUCAAACAAUAGGUCUG [Fam1A.1 aminoacylation ribozyme variant] | 0.803 | 0.835 | 0.812 | 0.923 | 1.08 | 1.25
34 | AUACUUCAAACAAUCGAUCUG [Fam1A.1 aminoacylation ribozyme variant] | 0.648 | 0.485 | 0.535 | 0.59 | 0.684 | 0.915
35 | AUACUUCAAACAAUCGUUCUG [Fam1A.1 aminoacylation ribozyme variant] | 0.897 | 0.706 | 0.81 | 0.745 | 0.709 | 1.23
36 | AUACUUCAAACCAUCGGUCUG [Fam1A.1 aminoacylation ribozyme variant] | 1.07 | 0.902 | 0.774 | 0.917 | 1.1 | 0.887
37 | AUACUUCAAGCAAUCGGUCUG [Fam1A.1 aminoacylation ribozyme variant] | 1.48 | 0.853 | 0.824 | 0.77 | 0.786 | 2.15
38 | AUCACCCCGGUCAUCGAGUGA [Fam2.1 aminoacylation ribozyme variant] | 9.73 | 10.2 | 8.33 | 4.47 | 4.51 | 52.6
39 | AUCACCCUGGUCAUAGAGUGA [Fam2.1 aminoacylation ribozyme variant] | 13.2 | 13.2 | 13.6 | 4.92 | 5.17 | 85.7
40 | AUCACCCUGGUCAUCCAGUGA [Fam2.1 aminoacylation ribozyme variant] | 6.77 | 7.91 | 6.56 | 3.61 | 4.34 | 41.2
41 | AUCACUCUGGUCAUCGAGUGA [Fam2.1 aminoacylation ribozyme variant] | 4.03 | 3.85 | 3.12 | 2.9 | 3.2 | 13.9
42 | AUCAUCCUGGUCAUCGAGUGA [Fam2.1 aminoacylation ribozyme variant] | 10.5 | 10.1 | 9.33 | 4.82 | 4.91 | 36.4
43 | AUCCACAUAGGUCAUCGGGUG [Fam2.2 aminoacylation ribozyme variant] | 8.91 | 12.1 | 10.1 | 6.77 | 5.82 | 78.8
44 | AUCCACCCAGGUCAUCGGGUG [Fam2.2 aminoacylation ribozyme variant] | 7.4 | 7.15 | 5.87 | 5.18 | 4.15 | 40
45 | AUCCACCUAGGUCAUCGGGAG [Fam2.2 aminoacylation ribozyme variant] | 2.19 | 1.68 | 1.65 | 2.17 | 1.88 | 1.03
46 | AUCCACCUAGGUCAUCGGGUC [Fam2.2 aminoacylation ribozyme variant] | 2.68 | 1.93 | 2.25 | 2.04 | 1.72 | 5.86
47 | AUCCACCUAGGUCAUCGGGUU [Fam2.2 aminoacylation ribozyme variant] | 12 | 19 | 14.3 | 7.64 | 9.74 | 71.1
48 | AUCCACCUAGGUCAUCUGGUG [Fam2.2 aminoacylation ribozyme variant] | 2.77 | 3.74 | 2.77 | 2.28 | 2.26 | 26.4
49 | AUCCACCUAGGUCAUGGGGUG [Fam2.2 aminoacylation ribozyme variant] | 5.9 | 6.65 | 5.64 | 3.77 | 3.54 | 56.5
50 | AUCCACCUCGGUCAUCGGGUG [Fam2.2 aminoacylation ribozyme variant] | 7.66 | 7.66 | 7.86 | 7 | 5.06 | 72.4
51 | AUCCACCUUGGUCAUCGGGUG [Fam2.2 aminoacylation ribozyme variant] | 6.99 | 7.29 | 6.42 | 5.35 | 4.12 | 45.5
